Assay results as given in patent US9249224B2 (RINAT NEUROSCIENCE CORP., priority 2011, dated 2016).
Values joined by “and” are separate entries in the source; they are usually repeats but may differ in a detail not shown here. Equal values may be shown once.

Target: T1, human GHR (Homo sapiens, UniProt P10912)
T1 construct: his-tagged monomers of amino acids 31-235 of the extracellular domain of the human or cyno GHR
T1 sequence (P10912 49-253): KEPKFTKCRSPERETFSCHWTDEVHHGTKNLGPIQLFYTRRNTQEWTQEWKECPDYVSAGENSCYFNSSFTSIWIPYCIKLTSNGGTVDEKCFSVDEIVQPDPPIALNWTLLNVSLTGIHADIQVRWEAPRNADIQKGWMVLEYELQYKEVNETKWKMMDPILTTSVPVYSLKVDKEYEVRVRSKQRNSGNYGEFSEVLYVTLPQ
Test: Biacore kinetics and affinity, captured IgG, human GHR analyte, 25° C.
Assay type: binding
Details: IgG immobilized by capture
Protocol: The affinity of a mouse anti-GHR antibody, Ab13, to human and cyno GHR was measured on a Biacore™ 2000 biosensor (GE Lifesciences™, Piscataway N.J.). An anti-mouse Ig sensor surface was prepared using a Biacore™ CM5 chip and reagents from the Biacore™ mouse antibody capture kit (GE Lifesciences™, Catalog# BR-1008-38), using instructions provided by the manufacturer.
The kinetics assay was run using a kinetic titration methodology as described in Karlsson et al., 2006, Anal. Biochem 349, 136-147. The mouse antibody, Ab13, was captured onto downstream flow cells at 0.5 μg/mL at a flow rate of 5 μL/min for 1 minute, 2 minutes and 4 minutes on flow cells 2, 3 and 4 respectively. Flow cell 1 was used as a reference surface. […]
The affinities of a humanized GHR antibody, SS1, and a chimeric molecule comprising the Fab of Ab13 fused to a human Fc domain (“Ab13-hFc”) to human and cyno GHR was measured on a Biacore™ 2000 biosensor (GE Lifesciences™ Piscataway N.J.). […]
The kinetics assay was run using a methodology with varying dissociation times as described in Katsamba et al., 2006, Anal. Biochem 352, 208-221. […] After the analyte injection, dissociation was monitored for 30 minutes (for the 400 nM GHR cycle) or 30 seconds (all other cycles) followed by regeneration of all flow cells with two 30-second injections of 75 mM phosphoric acid. […]

B1: SS1: humanized GHR antagonist antibody; VL SEQ ID NO: 7, VH SEQ ID NO: 8; hIgG2Δa heavy chain SEQ ID NO: 134, light chain SEQ ID NO: 135 (antibody)
heavy: EVQLVESGGGLVKPGGSLRLSCAASGFTFSDAWMDWVRQAPGKGLEWVAEIRSKANYHATYYAESVKGRFTISRDDSKNTLYLQMNSLKTEDTAVYYCTLIRDYWGQGTLVTVSSASTKGPSVFPLAPCSRSTSESTAALGCLVKDYFPEPVTVSWNSGALTSGVHTFPAVLQSSGLYSLSSVVTVPSSNFGTQTYTCNVDHKPSNTKVDKTVERKCCVECPPCPAPPVAGPSVFLFPPKPKDTLMISRTPEVTCVVVDVSHEDPEVQFNWYVDGVEVHNAKTKPREEQFNSTFRVVSVLTVVHQDWLNGKEYKCKVSNKGLPSSIEKTISKTKGQPREPQVYTLPPSREEMTKNQVSLTCLVKGFYPSDIAVEWESNGQPENNYKTTPPMLDSDGSFFLYSKLTVDKSRWQQGNVFSCSVMHEALHNHYTQKSLSLSPGK
light: EIVLTQSPGTLSLSPGERATLSCTATSSVSSSYLNWYQQKPGQAPRLLIYSTSNLASGIPDRFSGSGSGTDFTLTISRLEPEDFAVYYCHQYHRSTPTFGGGTKVEIKRTVAAPSVFIFPPSDEQLKSGTASVVCLLNNFYPREAKVQWKVDNALQSGNSQESVTEQDSKDSTYSLSSTLTLSKADYEKHKVYACEVTHQGLSSPVTKSFNRGEC
modifications: Humanized and/or affinity matured antibody sequence
- ka: 77000 M⁻¹ s⁻¹ and 74000 M⁻¹ s⁻¹
- kd: 6.4e-05 s⁻¹ and 7.7e-05 s⁻¹
